Results published in patent US20100173324A1.

Biological target: human CD27 expressed on CHO/DG44 cells (normal O-linked sugar chain) (human) (UniProt P26842)
Assay: flow cytometry on CD27/DG44-4 cells

UniProt P26842, sequence (P26842 20-260 H233R limits assumed): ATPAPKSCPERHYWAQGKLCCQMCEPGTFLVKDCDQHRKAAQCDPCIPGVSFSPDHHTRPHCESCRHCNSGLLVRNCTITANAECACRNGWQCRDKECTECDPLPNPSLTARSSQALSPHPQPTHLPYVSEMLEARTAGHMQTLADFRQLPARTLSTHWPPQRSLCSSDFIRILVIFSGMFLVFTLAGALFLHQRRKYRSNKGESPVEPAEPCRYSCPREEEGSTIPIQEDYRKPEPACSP

EC50 (read off the curve): 0.2 µg/mL
Substance: Anti-CD27 Antibody (O323)
